Assays:
Human IL1RAPL1-Fc = biological target: T1, Human IL1RAPL1-Fc (human, UniProt Q9NZN1 19-357); test: ELISA
T1 sequence (looked up): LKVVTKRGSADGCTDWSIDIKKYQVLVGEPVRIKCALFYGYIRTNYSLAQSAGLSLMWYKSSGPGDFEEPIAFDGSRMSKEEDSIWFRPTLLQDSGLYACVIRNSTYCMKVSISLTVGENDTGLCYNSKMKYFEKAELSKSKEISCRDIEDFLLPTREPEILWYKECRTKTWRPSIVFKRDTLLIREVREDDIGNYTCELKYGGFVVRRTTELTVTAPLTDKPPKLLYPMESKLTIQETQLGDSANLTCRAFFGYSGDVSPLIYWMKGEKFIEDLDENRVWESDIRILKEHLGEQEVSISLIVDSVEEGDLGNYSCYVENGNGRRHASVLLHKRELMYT

Human IL-36R-Fc = biological target: T2, Human IL-36R-Fc (human, UniProt Q9HB29 20-335); test: ELISA
T2 sequence (looked up): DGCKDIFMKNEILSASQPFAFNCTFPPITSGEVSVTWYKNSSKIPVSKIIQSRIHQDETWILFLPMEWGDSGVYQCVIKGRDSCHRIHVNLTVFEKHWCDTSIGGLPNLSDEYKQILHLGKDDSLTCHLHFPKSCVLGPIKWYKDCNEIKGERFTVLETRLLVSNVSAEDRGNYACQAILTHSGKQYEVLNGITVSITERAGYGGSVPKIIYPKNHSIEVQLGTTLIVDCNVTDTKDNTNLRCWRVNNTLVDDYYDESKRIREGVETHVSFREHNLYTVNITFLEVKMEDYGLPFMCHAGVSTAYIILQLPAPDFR

binding result (Human IL1RAPL1-Fc): binds
binding result (Human IL-36R-Fc): binds
B1: Recombinant full length human IL-38 (ligand, UniProt Q8WWZ1 1-152, looked up)
chain: MCSLPMARYYIIKYADQKALYTRDGQLLVGDPVADNCCAEKICILPNRGLARTKVPIFLGIQGGSRCLACVETEEGPSLQLEDVNIEELYKGGEEATRFTFFQSSSGSAFRLEAAAWPGWFLCGPAEPQQPVQLTKESEPSARTKFYFEQSW
